Source: patent US20220049021A1

T1: human FLT3 on AML5 cells (human) (UniProt P36888)
T1 sequence (looked up): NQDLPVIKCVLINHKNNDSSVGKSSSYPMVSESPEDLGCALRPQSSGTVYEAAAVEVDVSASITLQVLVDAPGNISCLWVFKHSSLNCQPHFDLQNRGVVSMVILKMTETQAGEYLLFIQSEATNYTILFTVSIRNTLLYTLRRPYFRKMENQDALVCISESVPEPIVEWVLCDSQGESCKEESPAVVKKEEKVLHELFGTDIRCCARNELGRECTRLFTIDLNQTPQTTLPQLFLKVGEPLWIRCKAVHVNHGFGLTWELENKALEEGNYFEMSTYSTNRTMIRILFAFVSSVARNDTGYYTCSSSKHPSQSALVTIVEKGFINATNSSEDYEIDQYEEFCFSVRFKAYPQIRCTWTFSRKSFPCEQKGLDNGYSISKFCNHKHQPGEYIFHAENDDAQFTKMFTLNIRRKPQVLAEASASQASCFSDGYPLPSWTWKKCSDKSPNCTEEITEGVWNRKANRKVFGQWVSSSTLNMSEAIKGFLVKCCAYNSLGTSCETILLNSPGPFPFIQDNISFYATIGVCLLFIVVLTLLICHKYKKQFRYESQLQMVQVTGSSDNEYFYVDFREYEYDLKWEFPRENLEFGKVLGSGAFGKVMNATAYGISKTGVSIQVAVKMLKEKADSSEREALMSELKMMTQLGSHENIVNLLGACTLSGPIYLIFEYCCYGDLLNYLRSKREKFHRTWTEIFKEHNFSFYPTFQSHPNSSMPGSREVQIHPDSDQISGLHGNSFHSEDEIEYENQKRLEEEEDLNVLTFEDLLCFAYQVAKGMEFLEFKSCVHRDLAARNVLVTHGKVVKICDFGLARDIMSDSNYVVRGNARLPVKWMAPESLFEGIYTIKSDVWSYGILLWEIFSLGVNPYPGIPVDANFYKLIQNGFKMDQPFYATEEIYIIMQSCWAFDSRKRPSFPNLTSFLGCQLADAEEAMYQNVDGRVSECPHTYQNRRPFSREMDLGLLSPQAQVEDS

T2: mouse FLT3 on M1 cells (mouse) (UniProt Q00342)
T2 sequence (looked up): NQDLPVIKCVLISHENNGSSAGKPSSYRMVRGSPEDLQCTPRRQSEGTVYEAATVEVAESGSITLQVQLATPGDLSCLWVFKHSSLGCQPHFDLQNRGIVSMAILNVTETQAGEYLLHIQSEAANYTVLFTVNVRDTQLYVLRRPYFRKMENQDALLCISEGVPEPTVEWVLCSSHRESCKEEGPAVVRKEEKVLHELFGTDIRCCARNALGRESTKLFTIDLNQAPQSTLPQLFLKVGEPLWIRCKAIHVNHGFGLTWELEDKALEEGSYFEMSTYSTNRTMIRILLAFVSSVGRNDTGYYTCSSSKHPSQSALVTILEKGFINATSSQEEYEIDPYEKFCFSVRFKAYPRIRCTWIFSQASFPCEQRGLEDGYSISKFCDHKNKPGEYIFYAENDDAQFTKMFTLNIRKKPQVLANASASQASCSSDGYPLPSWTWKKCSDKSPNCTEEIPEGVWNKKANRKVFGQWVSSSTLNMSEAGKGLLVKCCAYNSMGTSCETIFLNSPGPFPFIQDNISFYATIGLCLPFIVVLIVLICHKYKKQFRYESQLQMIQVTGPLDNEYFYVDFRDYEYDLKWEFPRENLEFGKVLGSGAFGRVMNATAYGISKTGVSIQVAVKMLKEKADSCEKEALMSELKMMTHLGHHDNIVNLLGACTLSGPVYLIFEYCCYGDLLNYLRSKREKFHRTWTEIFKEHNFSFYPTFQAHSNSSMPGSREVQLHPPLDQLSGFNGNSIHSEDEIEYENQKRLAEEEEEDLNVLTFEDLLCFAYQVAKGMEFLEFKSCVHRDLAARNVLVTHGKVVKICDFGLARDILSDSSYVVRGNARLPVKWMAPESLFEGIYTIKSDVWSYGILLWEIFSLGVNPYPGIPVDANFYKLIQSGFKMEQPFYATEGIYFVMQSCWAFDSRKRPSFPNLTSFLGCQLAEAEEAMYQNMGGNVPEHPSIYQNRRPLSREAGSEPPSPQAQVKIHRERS


Tests used:
[1] = biological target: T1, human FLT3 on AML5 cells (human); assay: cell-based or functional assay
[2] = biological target: T2, mouse FLT3 on M1 cells (mouse); assay: cell-based or functional assay

Row | Binder | EC50 (nM), Inducing Proliferation of AML5 Cells [1] | EC50(nM), M1 IL-6 release assay [2] | Emax(pg/ml), M1 IL-6 release assay [2]
1 | mouse FLT3-ligand mouse IgG2a (LALA-PG) fusion protein (SEQ ID NO:19) (Fc fusion) TPDCYFSHSPISSNFKVKFRELTDHLLKDYPVTVAVNLQDEKHCKALWSLFLAQRWIEQLKTVAGSKMQTLLEDVNTEIHFVTSCTFQPLPECLRFVQTNISHLLKDTCTQLLALKPCIGKACQNFSRCLEVQCQPDSSTLLPPRSPIALEATELPEPRGPTIKPCPPCKCPAPNAAGGPSVFIFPPKIKDVLMISLSPIVTCVVVDVSEDDPDVQISWFVNNVEVHTAQTQTHREDYNSTLRVVSALPIQHQDWMSGKEFKCKVNNKDLGAPIERTISKPKGSVRAPQVYVLPPPEEEMTKKQVTLTCMVTDFMPEDIYVEWTNNGKTELNYKNTEPVLDSDGSYFMYSKLRVEKKNWVERNSYSCSVVHEGLHNHHTTKSFSRTPGK | 0.171 nM |  | 
2 | mouse FLT3-ligand mouse IgG2a (C136S LALA-PG) fusion protein (SEQ ID NO:20) (Fc fusion) TPDCYFSHSPISSNFKVKFRELTDHLLKDYPVTVAVNLQDEKHCKALWSLFLAQRWIEQLKTVAGSKMQTLLEDVNTEIHFVTSCTFQPLPECLRFVQTNISHLLKDTSTQLLALKPCIGKACQNFSRCLEVQCQPDSSTLLPPRSPIALEATELPEPRGPTIKPCPPCKCPAPNAAGGPSVFIFPPKIKDVLMISLSPIVTCVVVDVSEDDPDVQISWFVNNVEVHTAQTQTHREDYNSTLRVVSALPIQHQDWMSGKEFKCKVNNKDLGAPIERTISKPKGSVRAPQVYVLPPPEEEMTKKQVTLTCMVTDFMPEDIYVEWTNNGKTELNYKNTEPVLDSDGSYFMYSKLRVEKKNWVERNSYSCSVVHEGLHNHHTTKSFSRTPGK | 0.115 nM |  | 

Continued, values first:

Row | EC50 (nM), Inducing Proliferation of AML5 Cells [1] | EC50(nM), M1 IL-6 release assay [2] | Emax(pg/ml), M1 IL-6 release assay [2] | Binder
3 |  | 0.117 nM | 517 pg/mL | recombinant human FLT3-ligand human IgG1 fusion protein (Fc fusion, UniProt P49771 27-185, looked up, not shown: a dimerising Fc or GST) TQDCSFQHSPISSDFAVKIRELSDYLLQDYPVTVASNLQDEELCGGLWRLVLAQRWMERLKTVAGSKMQGLLERVNTEIHFVTKCAFQPPPSCLRFVQTNISRLLQETSEQLVALKPWITRQNFSRCLELQCQPDSSTLPPPWSPRPLEATAPTAPQPP
4 | 0.039 nM | 0.024 nM | 392 pg/mL | recombinant human FLT3-ligand (ligand, UniProt P49771 27-185, looked up) TQDCSFQHSPISSDFAVKIRELSDYLLQDYPVTVASNLQDEELCGGLWRLVLAQRWMERLKTVAGSKMQGLLERVNTEIHFVTKCAFQPPPSCLRFVQTNISRLLQETSEQLVALKPWITRQNFSRCLELQCQPDSSTLPPPWSPRPLEATAPTAPQPP
